According to paper PMC8913300, “Two distinct classes of cochaperones compete for the EEVD motif in heat shock protein 70 to tune its chaperone activities” (The Journal of Biological Chemistry, 2022):
“And” between values parts separate entries of the source, which are not always exact repeats. Identical values can stand only once. No end group written: not given here.

B1: C terminus of Hsc70 interacting protein (CHIP) (enzyme, human, UniProt Q9UNE7 1-303, looked up)
chain: MKGKEEKEGGARLGAGGGSPEKSPSAQELKEQGNRLFVGRKYPEAAACYGRAITRNPLVAVYYTNRALCYLKMQQHEQALADCRRALELDGQSVKAHFFLGQCQLEMESYDEAIANLQRAYSLAKEQRLNFGDDIPSALRIAKKKRWNSIEERRIHQESELHSYLSRLIAAERERELEECQRNHEGDEDDSHVRAQQACIEAKHDKYMADMDELFSQVDEKRKKRDIPDYLCGKISFELMREPCITPSGITYDRKDIEEHLQRVGHFDPVTRSPLTQEQLIPNLAMKEVIDAFISENGWVEDY
notes: recombinant human CHIP, E3 ubiquitin ligase with a TPR domain; source: E. coli BL21(DE3), purified (Ni-NTA, TEV cleavage, SEC); not shown: His6, N-terminal, cleaved
B4: Hsp72 T636E tracer FITC-Ahx-GSGPEIEEVD (peptide)
peptide: GSGPEIEEVD-OH
modifications: not fully specified (N-terminus); printed as FITC-Ahx-GSGPEIEEVD; also: methods name the dye 5-FAM, not FITC
notes: also called phosphomimetic T636E Hsp72 fluorescent tracer; source: synthetic peptide, bought: GenScript

Tests used:
Settings in all cases: both partners purified
[1] = target: B4; assay: fluorescence polarisation; saturation binding; 20 nM fluorescent Hsp72 tracer, CHIP titrated in 2x dilutions (110-0.013 μM); 25 mM Hepes, 50 mM KCl, 0.01% Triton X-100, pH 7.4; 30 min at room temperature
[2] = target: B1; assay: fluorescence polarisation; competition; 100 μM unlabeled peptide, 1.58 μM CHIP, 20 nM Hsp72 tracer; 50 mM Hepes pH 7.4, 50 mM KCl, 0.01% Triton X-100; 30 min at room temperature
[3] = target: T1, DnaJB4 (human, UniProt Q9UDY4 1-337); assay: fluorescence polarisation; saturation binding; 20 nM fluorescent Hsp72 tracer, J-domain protein titrated in 2x dilutions (110-0.013 μM told for DnaJB4); 50 mM Tris, 15 mM NaCl, 1 mM DTT, 0.01% Triton X-100, pH 8.0; 30 min at room temperature
T1 construct: DnaJB4, human, recombinant full length class B J-domain protein; the oligomeric state of DnaJB4 is not measured here; also called WT DnaJB4; class B JDP; source: E. coli BL21 (DE3) Rosetta, purified (Ni-NTA, TEV cleavage, SEC on Superdex 200); not shown: His6, N-terminal, cleaved

[4] = target: T1, DnaJB4; assay: fluorescence polarisation; competition; 100 μM unlabeled peptide, 5 μM DnaJB4, 20 nM Hsp72 tracer in JDP binding buffer; 30 min at room temperature; tracer displacement relative to DMSO control

T1 sequence (Q9UDY4 whole entry): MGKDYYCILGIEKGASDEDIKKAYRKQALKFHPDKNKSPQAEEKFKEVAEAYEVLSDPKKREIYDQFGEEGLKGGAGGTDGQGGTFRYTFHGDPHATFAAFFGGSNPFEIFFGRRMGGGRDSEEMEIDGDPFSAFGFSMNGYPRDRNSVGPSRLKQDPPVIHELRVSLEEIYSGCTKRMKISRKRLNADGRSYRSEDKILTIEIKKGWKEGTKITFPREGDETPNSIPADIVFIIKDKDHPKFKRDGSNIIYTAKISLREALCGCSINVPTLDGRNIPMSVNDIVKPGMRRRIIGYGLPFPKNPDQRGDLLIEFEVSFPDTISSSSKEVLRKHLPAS

Binder: B1
- fold weakening of the affinity against the WT tracer [1]: 5 fold

B2: Hsp72 tracer FITC-Ahx-GSGPTIEEVD (peptide)
peptide: GSGPTIEEVD-OH
modifications: not fully specified (N-terminus); printed as FITC-Ahx-GSGPTIEEVD; also: methods name the dye 5-FAM, not FITC
notes: last 10 residues of Hsp72/HSPA1A; also called fluorescent Hsp72 tracer; Hsp72 probe; source: synthetic peptide, bought: GenScript
- binding result [2]: binds
- Kd [3]: 1840 nM and 1650 nM

B3: Hsp72 C-terminal peptide truncated of P10 and P9 (8-mer) (peptide, UniProt P0DMV8 634-641, looked up)
peptide: Ac-GPTIEEVD-OH
notes: source: synthetic peptide, bought: GenScript
- binding result [4]: binds

Binder: B4
- binding result [3]: binds

B5: Hsp72 C-terminal peptide truncated of P10 (9-mer) (peptide, UniProt P0DMV8 633-641, looked up)
peptide: Ac-SGPTIEEVD-OH
notes: as for B3
- binding result [4]: binds

B6: Hsp72 C-terminal peptide truncated of P10 to P8 (7-mer PTIEEVD) (peptide)
peptide: Ac-PTIEEVD-OH
notes: last seven amino acids of Hsp72/HSPA1A; source: synthetic peptide, bought: GenScript
- binding result [4]: binds

B7: Hsp72 C-terminal 10-mer peptide, unlabeled, N-acetylated (peptide)
peptide: Ac-GSGPTIEEVD-OH
notes: last 10 residues of Hsp72/HSPA1A; also called WT Hsp72 peptide; source: synthetic peptide, bought: GenScript
- binding result [2]: binds

B8: Hsp72 10-mer peptide with P5 Ile replaced by Met (peptide, UniProt P0DMV8 632-641, looked up)
peptide: Ac-GSGPTMEEVD-OH
notes: also called P5 Met mutant; source: synthetic peptide, bought: GenScript
- binding result [4]: binds
